Results taken from patent US20220031857A1 (OSSIANIX, published 2022).

T1: recombinant mouse TfR2 (mouse, UniProt Q9JKX3 103-798, limits assumed)
T1 construct: Negative control protein
T1 sequence (looked up): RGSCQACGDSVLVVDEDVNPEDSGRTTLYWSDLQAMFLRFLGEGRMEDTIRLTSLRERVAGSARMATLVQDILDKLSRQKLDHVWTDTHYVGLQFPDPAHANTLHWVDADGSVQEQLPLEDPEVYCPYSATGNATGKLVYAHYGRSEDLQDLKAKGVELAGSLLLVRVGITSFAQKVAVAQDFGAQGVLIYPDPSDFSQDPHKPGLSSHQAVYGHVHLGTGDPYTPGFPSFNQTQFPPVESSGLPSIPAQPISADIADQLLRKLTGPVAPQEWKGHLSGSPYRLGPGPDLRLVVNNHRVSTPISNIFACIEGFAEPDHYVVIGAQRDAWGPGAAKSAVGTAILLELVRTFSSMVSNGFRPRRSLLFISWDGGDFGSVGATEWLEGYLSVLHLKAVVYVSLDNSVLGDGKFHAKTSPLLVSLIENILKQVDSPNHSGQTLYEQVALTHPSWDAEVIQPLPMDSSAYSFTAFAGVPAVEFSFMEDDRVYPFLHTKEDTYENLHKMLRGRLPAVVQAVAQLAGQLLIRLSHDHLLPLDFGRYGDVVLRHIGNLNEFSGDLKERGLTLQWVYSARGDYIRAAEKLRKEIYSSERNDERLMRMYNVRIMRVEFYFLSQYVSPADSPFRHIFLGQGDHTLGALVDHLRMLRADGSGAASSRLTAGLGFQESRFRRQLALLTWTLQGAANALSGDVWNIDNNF


Key:
Experiment in all cases: phage ELISA
[1] = target: T2, recombinant human TfR1 (transferrin receptor 1) (human, UniProt P02786 89-760)
T2 construct: Bought recombinant His-tagged protein; also called hTfR1
T2 sequence (P02786 89-760 limits assumed): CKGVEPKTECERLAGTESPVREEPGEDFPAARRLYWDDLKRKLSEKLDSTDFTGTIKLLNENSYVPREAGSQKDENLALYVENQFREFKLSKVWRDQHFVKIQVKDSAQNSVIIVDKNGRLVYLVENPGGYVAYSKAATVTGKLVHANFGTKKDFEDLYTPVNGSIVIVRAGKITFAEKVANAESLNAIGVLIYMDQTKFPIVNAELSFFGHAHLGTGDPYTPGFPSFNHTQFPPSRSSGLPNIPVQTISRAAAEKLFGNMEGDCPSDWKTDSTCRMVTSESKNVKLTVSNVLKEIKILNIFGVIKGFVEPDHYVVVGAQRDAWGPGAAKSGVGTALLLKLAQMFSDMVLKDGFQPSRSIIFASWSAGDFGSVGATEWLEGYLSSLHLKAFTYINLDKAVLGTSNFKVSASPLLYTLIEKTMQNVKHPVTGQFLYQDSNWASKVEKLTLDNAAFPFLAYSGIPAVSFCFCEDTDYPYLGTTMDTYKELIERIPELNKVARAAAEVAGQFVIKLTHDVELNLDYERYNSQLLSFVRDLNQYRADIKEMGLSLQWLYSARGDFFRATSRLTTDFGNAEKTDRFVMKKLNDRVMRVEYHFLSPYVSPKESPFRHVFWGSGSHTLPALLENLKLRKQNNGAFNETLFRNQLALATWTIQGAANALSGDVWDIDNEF

[2] = target: T3, recombinant mouse TfR1 (transferrin receptor 1) (mouse, UniProt Q62351 89-763)
T3 construct: Bought recombinant His-tagged protein; also called mTfR1
T3 sequence (Q62351 89-763 limits assumed): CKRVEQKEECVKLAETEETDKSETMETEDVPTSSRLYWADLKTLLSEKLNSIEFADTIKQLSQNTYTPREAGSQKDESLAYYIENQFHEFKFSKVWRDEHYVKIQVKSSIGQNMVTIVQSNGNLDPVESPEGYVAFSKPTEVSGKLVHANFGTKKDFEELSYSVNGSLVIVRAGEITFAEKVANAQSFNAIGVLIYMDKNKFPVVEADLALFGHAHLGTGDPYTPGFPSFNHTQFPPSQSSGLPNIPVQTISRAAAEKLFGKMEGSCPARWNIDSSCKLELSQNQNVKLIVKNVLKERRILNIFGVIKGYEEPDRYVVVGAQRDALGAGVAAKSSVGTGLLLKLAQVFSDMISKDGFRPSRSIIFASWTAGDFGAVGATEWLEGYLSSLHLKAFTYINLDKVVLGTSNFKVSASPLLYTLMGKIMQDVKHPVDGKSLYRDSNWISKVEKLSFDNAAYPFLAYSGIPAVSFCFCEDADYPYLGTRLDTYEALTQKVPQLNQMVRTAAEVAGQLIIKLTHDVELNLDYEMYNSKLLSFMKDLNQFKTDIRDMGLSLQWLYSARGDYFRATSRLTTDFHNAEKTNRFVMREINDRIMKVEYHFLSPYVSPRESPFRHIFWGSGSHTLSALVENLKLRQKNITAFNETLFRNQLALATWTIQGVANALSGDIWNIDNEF

recombinant mouse TfR2 = target: T1, recombinant mouse TfR2

Binder	binding result [1]	binding result [2]	binding result (recombinant mouse TfR2)
SEQ ID NO 13 (VNAR clone displayed on phage) (VNAR, shark VNAR domain on M13 phage; coat-protein fusion not described) VNAR: ARVDQTPQTITKETGESLTINCVLRDSNCALPSTYRYRKKSGSTNEESISKGGRYVETVNSGSKSFSLRINDLTVEDSGTYRCKVTMVRGRGCYQPARGQDVYGGGTAVTVNA	binds	binds	
SEQ ID NO 14 (VNAR clone displayed on phage) (VNAR, shark VNAR domain on M13 phage; coat-protein fusion not described) VNAR: ARVDQTPQTITKETGESLTINCVLRDSNCALPSTYWYRKKSGSTNEESISKGGRYVETVNSGSKSFSLRINDLTVEDSGTYRCKVTFSAFEYCYVFKVQCDVYGDGTAVTVNA	binds	binds	
SEQ ID NO 15 (VNAR clone displayed on phage) (VNAR, shark VNAR domain on M13 phage; coat-protein fusion not described) VNAR: ARVDQTPQTITKETGESLTINCVLRDSNCALPSTYWYCKKSGSTNEESISKGGRYVETVNSGSKSFSLRINDLTVKDSGTYRCKVHVRAQSLCCQCWYGDVYGDGTAVTVNA	binds	binds	
SEQ ID NO 17 (VNAR clone displayed on phage) (VNAR, shark VNAR domain on M13 phage; coat-protein fusion not described) VNAR: ARVDQTPQTITKETGESLTINCVLRDSNCALPSTYWYRKKSGSTNEESISKGGRYVETVNSGSKSFSLRINDLTVKDSGTYRCNVARHWTQSCAYHRDVYGGGTAVTVNA	binds	binds	
SEQ ID NO 18 (VNAR clone displayed on phage) (VNAR, shark VNAR domain on M13 phage; coat-protein fusion not described) VNAR: ARVDQTPQTITKETGESLTINCVLRDSNCALPSTYWYRKKSGSTNEESISKGGRYVETVNSGSKSFSLRINDLTVKDSGTYRCNVQHIFQHNCYWFLYDVYGGGTAVTVNA	binds	binds	
SEQ ID NO 19 (VNAR clone displayed on phage) (VNAR, shark VNAR domain on M13 phage; coat-protein fusion not described) VNAR: ARVDQTPQTITKETGESLTINCVLRDSNCALPSTYWYRKKSGSTNEESISKGGRYVETVNSGSKSFSLRINDLTVEDSGTYRCNVGWSTQYYCVLPDVYGGGTAVTVNA	binds	binds	
SEQ ID NO 20 (VNAR clone displayed on phage) (VNAR, shark VNAR domain on M13 phage; coat-protein fusion not described) VNAR: ARVDQTPQTITKETGESLTINCVLRDSNCALPSTYWYRKKSGSTNEESISKGGRYVETVNSGSKSFSLRINDLTVEDSGTYRCNVYTSYCCSVADVYGGGTAVTVNA	binds	binds	
SEQ ID NO 21 (VNAR clone displayed on phage) (VNAR, shark VNAR domain on M13 phage; coat-protein fusion not described) VNAR: ARVDQTPQTITKETGESLTINCVLRDSNCALSSTYWYRKKSGSTNEESISKGGRYVETVNSGSKSFSLRINDLTVEDSGTYRCKVLTSQSQGGCVRVLYSDVYGDGTAVTVNA	binds	binds	
SEQ ID NO 22 (VNAR clone displayed on phage) (VNAR, shark VNAR domain on M13 phage; coat-protein fusion not described) VNAR: ARVDQTPQTITKETGESLTINCVLRDSNCALSSTYWYRKKSDSTNEESISKGGRYVETVNSGSKSFSLRINDLTVEDSGTYRCKVHSFNMDVCAEFQYSDVYGDGTAVTVNA	binds	binds	
SEQ ID NO 23 (VNAR clone displayed on phage) (VNAR, shark VNAR domain on M13 phage; coat-protein fusion not described) VNAR: ARVDQTPQTITKETGESLTINCVLRDSNCALSNLYWYRKKSGSTNEESISKGGRYVETVNSGSKSFSLRINDLTVEDSGTYRCNVINFFAMECEYQVGDVYGDGTAVTVNA	binds	binds	
SEQ ID NO 24 (VNAR clone displayed on phage) (VNAR, shark VNAR domain on M13 phage; coat-protein fusion not described) VNAR: ARVDQTPQTITKETGESLTINCVLRDSNCALSNLYWYRKKSGSTNEESISKGGRYVETVNSGSKSFSLRINDLTVKDSGTYRCNVLVSMFCQLAQDVYGDGTAVTVNA	binds	binds	
SEQ ID NO 25 (VNAR clone displayed on phage) (VNAR, shark VNAR domain on M13 phage; coat-protein fusion not described) VNAR: ARVDQTPQTITKETGESLTINCVLRDSNCALSNLYWYRKKSGSTNEESISLGGRYVETVNSGSKSFSLRINDLTVEDSGTYRCNVCLLQLAGYDSPYDVYGGGTAVTVNA	binds	binds	
SEQ ID NO 30 (VNAR clone displayed on phage) (VNAR, shark VNAR domain on M13 phage; coat-protein fusion not described) VNAR: ARVDQTPQTITKETGESLTINCVLRDSNCALSNLYWYRKKSGSTNEESISLGGRYVETVNSGSKSFSLRINDLTVEDSGTYRCNVCQWLQWYGGEMEDVYGGGTAVTVNA	binds	binds	
SEQ ID NO 26 (VNAR clone displayed on phage) (VNAR, shark VNAR domain on M13 phage; coat-protein fusion not described) VNAR: ARVDQTPQTITKETGESLTINCVLRDSNCALSNLYWYRKKSGSTNEENISKGGRYVETVNSGSKSFSLRINDLTVEDSGTYRCNVDVTRCTQSQDVYGGGTAVTVNA	binds	binds	
SEQ ID NO 27 (VNAR clone displayed on phage) (VNAR, shark VNAR domain on M13 phage; coat-protein fusion not described) VNAR: ARVDQTPQTVTKETGESLTINCVLRDSNCALSNLYWYRKKSGSTNEESISLGGRYVETVNSGSKSFSLRINDLTVEDSGTYRCNVKHYVCMQSKDVYGGGTVVTVNA	binds	binds	
SEQ ID NO 28 (VNAR clone displayed on phage) (VNAR, shark VNAR domain on M13 phage; coat-protein fusion not described) VNAR: ARVDQTPQTITKETGESLTINCVLRDSNCALSNLYWYRKKSGSTNEESISLGGRYVETVNSGSKSFSLRINDLTVKDSGTYRCNVFSFSCQLLFDVYGGGTAVTVNA	binds	binds	
SEQ ID NO 29 (VNAR clone displayed on phage) (VNAR, shark VNAR domain on M13 phage; coat-protein fusion not described) VNAR: ARVDQTPQTITKETGESLTINCVLRDSNCALSNLYWYRKKSGSTNEESISLGGRYVETVNSGSKSFSLRINDLTVEDSGTYRCKVSTSVPRHYDNCRQRRHDVYGGGTAVTVNA	binds	binds	
SEQ ID NO 31 (VNAR clone displayed on phage) (VNAR, shark VNAR domain on M13 phage; coat-protein fusion not described) VNAR: ARVDQTPQTITKETGESLTINCVLRDSNCDLSRTYWYRKKSGSTNEESISKGGRYVETVNSGSKSFSLKINDLTVEDSGTYRCNVFLWNNYNPMDVYGGGTAVTVNA	binds	binds	
SEQ ID NO 32 (VNAR clone displayed on phage) (VNAR, shark VNAR domain on M13 phage; coat-protein fusion not described) VNAR: ARVDQTPQTITKETGESLTINCVLRDSNCALSNLYWYRKKSGSRNEESISKGGRYVETVNSGSKSFSLKINDLTVEDSGTYRCKVFGMRTHCQWVIYRITDVYGGGTAVTVNA	binds	binds	no binding
SEQ ID NO 33 (VNAR clone displayed on phage) (VNAR, shark VNAR domain on M13 phage; coat-protein fusion not described) VNAR: ARVDQTPQTITKETGESLTINCVLRDSNCDLSRTYWYRKKQGSTNEESISKGGRYVETVNSGSKSFSLRINDLTVEDSGTYRCNVALYHFTGCSRVQDVYGGGTVVTVNA	binds	binds	no binding
SEQ ID NO 34 (VNAR clone displayed on phage) (VNAR, shark VNAR domain on M13 phage; coat-protein fusion not described) VNAR: ARVDQTPQTITKETGESLTINCVLRDSNCDLSRTYWYRKKSGSTNEESISKGGRYVETVNSGSKSFSLRINDLVVEDSGTYRCNVAVFTRCHNQQDVYGGGTAVTVNA	binds	binds	no binding
SEQ ID NO 35 (VNAR clone displayed on phage) (VNAR, shark VNAR domain on M13 phage; coat-protein fusion not described) VNAR: ARVDQTPQTITKETGESLTINCVLRDSNCDLSRTYWYRKKSGSTNEESISKGGRYVETVNSGSKSFSLRINDLTVEDSGTYRCNVTWLDCHQCGASDVYGGGTVVTVNA	binds	binds	no binding
SEQ ID NO 36 (VNAR clone displayed on phage) (VNAR, shark VNAR domain on M13 phage; coat-protein fusion not described) VNAR: ARVDQTPQTITKETGESLTINCVLRDSNCDLSRTYWYRKKSGSTNEESISKGGRYVETVNSGSKSFSLRINDLVVEDSGTYRCNVHSVSCIQRLDVYGGGTVVTVNA	binds	binds	no binding
SEQ ID NO 37 (VNAR clone displayed on phage) (VNAR, shark VNAR domain on M13 phage; coat-protein fusion not described) VNAR: ARVDQTPQTITKETGESLTINCVLRDSNCALSSTLWYRTKSGSRNEESISKGGRYVETVNSGSKSFSLRINDLTVKDSGTYRCNVQQGVVATCTSKRCDVYGGGTAVTVNA	binds	binds	no binding
SEQ ID NO 38 (VNAR clone displayed on phage) (VNAR, shark VNAR domain on M13 phage; coat-protein fusion not described) VNAR: ARVDQTPQTITKETGESLTINCVLRDNNCALSSTLWYRTKSGSRNEESISKGGRYVETVNSGSKSFSLRINDLTVEDSGTYRCKVWQDSLSQPCESGCLDVYGGGTAVTVNA	binds	binds	no binding
SEQ ID NO 40 (VNAR clone displayed on phage) (VNAR, shark VNAR domain on M13 phage; coat-protein fusion not described) VNAR: ARVDQTPQTITKETGESLTINCVLRDSNCALSSTLWYRTKSGSRNEESISKGGRYVETVNSGSKSFSLRINDLTVEDSGTYRCNVQFSYNCNFWKDVYGGGTDVTVNA	binds	binds	no binding
